Data published in article PMC10397247.

T1: P8mSN
T1 chain: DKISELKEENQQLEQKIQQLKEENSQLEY

T2: P5mSN
T2 chain: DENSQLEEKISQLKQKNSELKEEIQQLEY

T3: P2mSN
T3 chain: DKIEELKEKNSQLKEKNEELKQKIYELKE

T4: P7mSN
T4 chain: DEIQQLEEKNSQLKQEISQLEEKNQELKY

T5: P9mSN
T5 chain: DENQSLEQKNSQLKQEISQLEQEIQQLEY

T6: P3mSN
T6 chain: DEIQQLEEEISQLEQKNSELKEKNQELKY

T7: P6mSN
T7 chain: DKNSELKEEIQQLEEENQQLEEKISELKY

T8: P4bH1
T8 chain: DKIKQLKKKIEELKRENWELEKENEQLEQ

T9: P4mSN
T9 chain: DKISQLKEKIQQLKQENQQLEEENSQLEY

T10: P1mSN
T10 chain: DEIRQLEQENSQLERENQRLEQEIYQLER

T11: 4H496-bH
T11 chain: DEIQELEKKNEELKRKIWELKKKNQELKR

T12: 4H3632-bH
T12 chain: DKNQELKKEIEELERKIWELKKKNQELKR

T13: 4H3070-bH
T13 chain: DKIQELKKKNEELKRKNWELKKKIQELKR

T14: 4H342-bH
T14 chain: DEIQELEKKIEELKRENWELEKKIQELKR


What was measured:
Test in all cases: two-hybrid library CCNG1;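 further: natural log of median RNA to DNA barcode read ratio; higher means stronger binding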
P8mSN = molecular target: T1, P8mSN
P5mSN = molecular target: T2, P5mSN
P2mSN = molecular target: T3, P2mSN
P7mSN = molecular target: T4, P7mSN
P9mSN = molecular target: T5, P9mSN
P3mSN = molecular target: T6, P3mSN
P6mSN = molecular target: T7, P6mSN
P4bH1 = molecular target: T8, P4bH1
P4mSN = molecular target: T9, P4mSN
P1mSN = molecular target: T10, P1mSN
4H496-bH = molecular target: T11, 4H496-bH
4H3632-bH = molecular target: T12, 4H3632-bH
4H3070-bH = molecular target: T13, 4H3070-bH; settings: mean of both orientations
4H342-bH = molecular target: T14, 4H342-bH

interaction score (P8mSN) | interaction score (P5mSN) | interaction score (P2mSN) | interaction score (P7mSN) | interaction score (P9mSN) | interaction score (P3mSN) | interaction score (P6mSN) | interaction score (P4bH1) | interaction score (P4mSN) | interaction score (P1mSN) | interaction score (4H496-bH) | interaction score (4H3632-bH) | interaction score (4H3070-bH) | interaction score (4H342-bH) | Binder
-1.26 | -0.724 | -1.97 | -0.243 | -1.13 | -0.831 | -0.752 | -1.37 | -0.0295 | – | – | – | – | – | DKIEELKEKNSQLKEKNEELKQKIYELKE [P2mSN]
-1.17 | -1.04 | 1.73 | -1.01 | -2.07 | -1.95 | -0.582 | – | -1.09 | -1.23 | – | – | – | – | DEIRQLEQENSQLERENQRLEQEIYQLER [P1mSN]
– | – | – | – | – | – | – | – | – | – | -0.307 | -0.214 | 0.665 | 1.49 | DKIQELKKKNEELKRKNWELKKKIQELKR [4H3070-bH]
